Data: US20190070248A1 (BIONTECH, published 2019)
Positions of bridges follow the written chain, without caps; N, C: chain ends. No end group written: not given here. *: point of attachment. Biotin = O=C1N[C@H]2[C@H](CS[C@H]2CCCCC(=O)*)N1

B1: aCD3 C7C-4 (ACTRPGDPQC-GGGS-K(Bio)) (peptide)
peptide: ACTRPGDPQCGGGSK(Biotin)
modifications: disulfide 2-10 (inferred)
notes: On the microarrays the peptide was immobilized covalently through a reactive moiety, not through K(Bio); also called clone 4; parental peptide
B2: aCD3-04-002 (ACTRPDDPQC-GGGS-K(Bio)) (peptide)
peptide: ACTRPDDPQCGGGSK(Biotin)
modifications: disulfide 2-10 (inferred)
B3: aCD3-04-013 (ACTRPDDPEC-GGGS-K(Bio)) (peptide)
peptide: ACTRPDDPECGGGSK(Biotin)
modifications: disulfide 2-10 (inferred)
notes: also called TR66 mimotope aCD3-04-013
B4: aCD3-04-006 (WCTRPGDPQC-GGGS-K(Bio)) (peptide)
peptide: WCTRPGDPQCGGGSK(Biotin)
modifications: disulfide 2-10 (inferred)
B5: aCD3-04-007 (ACTRPEDPQC-GGGS-K(Bio)) (peptide)
peptide: ACTRPEDPQCGGGSK(Biotin)
modifications: disulfide 2-10 (inferred)
B6: aCD3-04-008 (ACTRPGDPAC-GGGS-K(Bio)) (peptide)
peptide: ACTRPGDPACGGGSK(Biotin)
modifications: disulfide 2-10 (inferred)
B7: aCD3-04-009 (ACTRPGDPYC-GGGS-K(Bio)) (peptide)
peptide: ACTRPGDPYCGGGSK(Biotin)
modifications: disulfide 2-10 (inferred)
B8: aCD3-04-014 (ACTRPDDPWC-GGGS-K(Bio)) (peptide)
peptide: ACTRPDDPWCGGGSK(Biotin)
modifications: disulfide 2-10 (inferred)

Assays:
[1] = molecular target: T1, TR66 antibody (CD3ε specific antibody, clone TR66); assay: apparent KD, peptide ELISA, biotinylated peptide on streptavidin plate, TR66 titrated, two-site saturation fit
T1 construct: Whole antibody

[2] = molecular target: T1, TR66 antibody (CD3ε specific antibody, …); assay: peptide ELISA, apparent KD against the parental peptide

Binder	Kd [1]	fold lower apparent KD than the parental peptide aCD3 C7C-4 [2]
B1	370 nM	–
B2	78 nM	~5 fold
B3	4 nM	~100 fold
B4	226 nM	–
B5	299 nM	–
B6	164 nM	–
B7	167 nM	–
B8	111 nM	–
